Measurements published in patent publication US20030171565.

Tested on: protein zero related (PZR), tyrosine-phosphorylated
Sequence (chain, as listed by the source): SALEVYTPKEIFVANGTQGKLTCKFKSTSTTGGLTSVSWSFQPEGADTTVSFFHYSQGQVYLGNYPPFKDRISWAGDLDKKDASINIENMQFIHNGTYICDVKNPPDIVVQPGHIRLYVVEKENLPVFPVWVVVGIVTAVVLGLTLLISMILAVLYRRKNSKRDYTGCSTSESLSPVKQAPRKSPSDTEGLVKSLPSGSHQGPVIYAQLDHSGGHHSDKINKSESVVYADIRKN

tyrosine phosphatase SHP-1
dephosphorylation of purified p43 in vitro (anti-phosphotyrosine Western blot): SHP-1 only produced a partial dephosphorylation
